The target of this assay is synthetic CDR1 peptide … with N-terminal Biotin-[TTDS] linker (human). Briefly: affinity purification with mass spectrometry; spike-in: 2 ug recombinant HTRA2 added to 5 mg homogenized pig retina; beads with CDR peptide, scrambled peptide or biotin only (n = 3); eluates on 1-D SDS-PAGE, gel region above 49 kDa digested with trypsin, LC-MS/MS intensity of HTRA2.

Consider “recombinant HTRA2/Omi (Human Serine Protease, cat. no. C760) (from UniProt O43464 32-458) (enzyme)”, for which the LC-MS intensity of recovered HTRA2 was 4.2e+08.

The values above are taken from paper PMC6723090.
